Assay: soluble on expression in E. coli; label from the status in PepcDB or PDB records

Q: With “MNRNRRDGPQRDVKRERRSRSRSPRRSRIGAAVGSNNGNSSSNNRMVFITNIAYEARWVDLKSLVREKGGEVAFCELLEDRNGKPKGNAVVEFETREGAEKCVENLQKFDWKGRTIIAKEIRDPNAFFRTIKTETGIDYLSRTGGGGAGGRGPPPKDLDRPTRTGTYDLFGLNMEFLRQHNIEPPLCERIFIANLAFNVGTDKLYEVFGMAGKITWMDFRIDKEGKSKGVCVIQYTHPIEAVQAVSMLNGQRLFDRNLVVKMDRFDKELEHKEGGLPRGLESIGMGLGAEGAPLSNVHGMFPGDASVPFTAPAAPFVGGPQVVSAGGFGGVVEQANFARSVMNNGPFGGNAGVGGAGGATFAQPDVFGVNGAGGLAGAATPQATRVIIIRNLPSDYTWQIVRDRVRNFGEVDSVDMMAPGAARIRFATFQDAERARAALYGSTVEGRMISVDYA” as the sequence, how does the “soluble on expression in E. coli” value read?
A: soluble

Q: For “MNRRMMLASAALLLAPLAAQAQTRDVSVTIYNSNLALVEDARPLDLKAGRQKLEFKDVSAAIRPETVSLSAPGVTILEQNFDYDLLTPDKLMEKAVGQKVKIVRTNPGDGKETTEVATVLAANQGVVLKIGDRIEVLRDDGVPTRVIFDKVPETLRARPTLSVSVEAAGAGTRQAKLSYLTSGLSWKADYVALFDEAKSTMDLQGWITLSNNSGTPFENARTQLVAGDVNQLNDGGYRSSRSPGMISAGTESGVGERVADYYVYPLPERTTIASNQNKQVGFLSAQGVTAKKVYEVREGWFTSQAEPTKAVVAIQFSNARLAGLGAQLPMGTMRVYMRDAAGDPKFVGENAIGHTPAGSELSIKTGEAFDVSGQATLVAESRVSKRLTRYEMKYLLRNAKDQPVTVELRQGGLGRDSTVKAESLKGRRIDAGTLGWSVPVPANGETVLTFTVETGWLEHHHHHH”, which “soluble on expression in E. coli” value is on record?
A: soluble

Q: For “MNRRVVIVTAVHGPSAPFLPEAYASLCAQELPDGWEWRWVIQEDGRTQDVRPHVPDDPRVVFHQGRHGRQGGPGVARTMALAHADGAYVKVLDADDRLTPGALARDLAALEADPSIGWATSRVLDLLPDGSTAGFPGDPAHGPIERGEVLDFWRANGFRAQVHPATLLVRRDLLLAVGGWMALPASEDTGLLLALNCVSRGWFTEDVGLLYRKWEGQETGQASHVDPAERDARMTVVEARARALASFGWRLPEGTGDFDHLEHHHHHH”, which “soluble on expression in E. coli” value is on record?
A: not soluble

Q: With “MNRTALVLGCLLVATPALAQSVTEKTGVNSVLGIAPTTPDFVKQVAISDMFEIQSNQLAERKGNAAQQAFAKQMIADHTKTSSELKAMVSDGKVKAELPTALDSAHQSKLDKLKNANGAEFSETFDEQQVSAHKDAVSLFERYAKGGDNDALKKWAGTTLPKLQHHLEMAQQLERDRTNTTSESKAKK” as the sequence, how does the “soluble on expression in E. coli” value read?
A: not soluble

Q: For “MNSDVIKGKWKQLTGKIKERWGDLTDDDLQAADGHAEYLVGKLQERYGWSKERAEQEVRDFSDRL”, which “soluble on expression in E. coli” value is on record?
A: soluble

Q: With “MNSEHPMTDRVVYRSLMADNLRWDALQLRDGDIIISAPSKSGLTWTQRLVSLLVFDGPDLPGPLSTVSPWLDQTIRPIEEVVATLDAQQHRRFIKTHTPLDGLVLDDRVSYICVGRDPRDAAVSMLYQSANMNEDRMRILHEAVVPFHERIAPPFAELGHARSPTEEFRDWMEGPNQPPPGIGFTHLKGIGTLANILHQLGTVWVRRHLPNVALFHYADYQADLAGELLRPARVLGIAATRDRARDLAQYATLDAMRSRASEIAPNTTDGIWHSDERFFRRGGSGDWQQFFTEAEHLRYYHRINQLAPPDLLAWAHEGRRGYDPAN” as the sequence, how does the “soluble on expression in E. coli” value read?
A: soluble

Q: Which “soluble on expression in E. coli” value does the source give for “MNSENSFSSSEHITVLLHEAVNGLALKENGIYIDGTFGRGGHSRFILSQLSSNGRLIAVDRDPRAIAEAHKIQDLRFQIEHNSFSHIPEICDKLNLVGKIDGILLDLGVSSPQLDEAERGFSFMKDGPLDMRMDTTQGLSAEEWLKQVSIEDLTWVLKTFGEERFAKRIATAIVDFNKSAVKNGTEFLSRTSQLAELISQAVPFKDKHKHPATRSFQAIRIFINSELDELESLLNSALDMLAPEGRLSIISFHSLEDRMVKHFMKKQSKGEDIPKGLPLREDQIQRNQKLRIIGKAIQPSDAEIQANPRSRSAILRVAERI” here?
A: not soluble

Q: Which “soluble on expression in E. coli” value does the source give for “MNSEQQQTVFLCVSYLLSYPDEQWAESLPDCLDAIRSLDDETVRAPLLAFAEQINSIPARQRMEQYVETFDFGKKTNLYLTYMTNGEQRERGIELVALKARYQAAGFAVSDHELPDYLPLMLEWMAYADQEHTTALLADYAGHIREIGDRLAAAGSPYAQLFDALNHTFTQLGVTPLPKGGATAWPANFSG” here?
A: not soluble

Q: For “MNSFIEGAHQPLLSVWRRAFLFSGALLLTACSHNASPPPFTASGFAGDHGAVRIWRKDTNDEVHLLSVFSPWHSGSTTTSEYRWQGDTLSLIELNIYSKPPEHIRARFDAHGELSFMQREVGGQKQQLSNDQIALYRYRAEQIRQTSDALRLGRVILRQGRWHADHTVTTCEGETLKPDLDSWAISHIERRQNHSSVEVSVAWLEAPEGSQLLLVANSDFCHWQPQAKSF”, which “soluble on expression in E. coli” value is on record?
A: not soluble

Q: For “MNSFRWDIYFETGIEDVDDQHQYLVEFINKYGKLLTRNTISIADIQSALFELSRYAEFYFKEEENLMREVGIHHEHLQKHIQVHRTFMGDIVSMQSFINEDNRQSAEQLLDFLIHWLAYHILGIDQNMAKQIKAIERGVSPLEAYREQEQQANASTEP”, which “soluble on expression in E. coli” value is on record?
A: soluble

Q: With “MNSKSAQGLAGLRNLGNTCFMNSILQCLSNTRELRDYCLQRLYMRDLHHGSNAHTALVEEFAKLIQTIWTSSPNDVVSPSEFKTQIQRYAPRFVGYNQQDAQEFLRFLLDGLHNEVNRVTLRPKSNPENLDHLPDDEKGRQMWRKYLEREDSRIGDLFVGQLKSSLTCTDCGYCSTVFDPFWDLSLPIAKRGYPEVTLMDCMRLFTKEDVLDGDEKPTCCRCRGRKRCIKKFSIQRFPKILVLHLKRFSESRIRTSKLTTFVNFPLRDLDLREFASENTNHAVYNLYAVSNHSGTTMGGHYTAYCRSPGTGEWHTFNDSSVTPMSSSQVRTSDAYLLFYELASPPSRMAAALEHHHHHH” as the sequence, how does the “soluble on expression in E. coli” value read?
A: soluble

Q: For “MNSLLFVYGTLRKHEKNHHLLAQSACINEQARTKGSLFAAKEGPTVVFNDEDEGYIYGEVYEADELCIHKLDQFFQGYHKQTVFVETDVGIKIALIYFMNKDGCAGFTKISSGDWKEHQMISKSKNPIYYFAYGSCMDNARFQKAGVDHYFQDPVGRAVLKGYTTRFTLKREDGSRADMLEDGGTTEGVLYRIPYSALSYLYKREGVESLTYRPAFVDVEAGGRHYKDCLTFLVLQKEAEIAPPQHYQIEIERGAELYLSPEFTEKLKRHMNSLPKGLEHHHHHH”, which “soluble on expression in E. coli” value is on record?
A: soluble

Q: For “MNSPLPDVALTEVSSALIALDWVGMQGVEVPLTLGEQGATHPVHAYADLQVDLTDPSVKGIHMSRLYRLLDGFAEHQVLTPETLSALLEAMVESHVDCHSSGARITLTFNLLCRRPALVTEGLSGWKSYPVKLEAVWRAGRLCLDVSADITYSSTCPCSAALSRQLLEEAFVARFGRQSFVDPMQVAAWLRENASYATPHSQRSVATVQVRVAEQATEMGLMALIDTVEQALGTPVQTAVKRADEQAFARLNGQNLMYVEDAARKIQQALEGRYPASSVSVRHFESLHPHDAAAQTSSYLS”, which “soluble on expression in E. coli” value is on record?
A: not soluble

Q: With “MNSQNPDDHEDTTVVGFEVPVSPVSSYNNVYSSTEDETRDPPAVPPHLQHSLLGNQGSMELAYAPQNVVLNHLYIENRDAPRSVVALGFSHRFRTKFVTVVIYKPVQRRGSANV” as the sequence, how does the “soluble on expression in E. coli” value read?
A: not soluble

Q: With “MNTCRGQHGPRRPEAGAAGHRAHVDGGQRGPGGQQEPDWHKAGATIPRLPSPSGSPWRREQDPAPGEPPHIPAHGNRPGGQEIRPRIPGLDREARPAVPPTHSPSYRIRLAGSEPSLVQAAPGQAVQLFCPGNIPPEFQAGWQKEGRPISSNRYQLQADGSLIISRLRPEDAGIYSCGSHRPGHEPQEIQLRVTGGDMAVLPEGQPRHFPEPRNPDLGHGPPHRGTGAEAGGHRVLSPSHPRPATRLRLDRTQPGVVDASPGQRIRLTCRAEGFPVPTIEWQRDGQLVSSPRHQVQPDGSLVISRVDVEDGGYYSCVAFNGQDRDQRWVQLRVLRELTITGLPPAVTVAEGDTARLLCVVAGESVNIRWSRNGLPIQADGHRVHQSPDGTLLIHNLRPRDEGSYTCSAFRGSQAVSRSTEVKVALPAPAAQSRDLGKDCIDQPELANCALILQAQLCGNEYYSSFCCASCSRFQPNAQPVWQQG” as the sequence, how does the “soluble on expression in E. coli” value read?
A: soluble

Q: With “MNTIAFKEIFLPIRPSIRAVCHAFLRDDEEAEDATQEVYLRLWEARMRLDGLDNPRAYAIRIARNYCLNLIRKASNSPYPTSLEAAEVQEVSETHGGEADLLLSEQIGRLRQWLRGVSELYRTVFAMSHFRRLSNGEIAERLGLTEGNVRVILCRLRREAKEVMKDDA” as the sequence, how does the “soluble on expression in E. coli” value read?
A: not soluble

Q: With “MNTKLPLDLFNQAKRSASQDQPALFSWVTELDELVSPVKLFKKAGTAFKGERFFWQNPEMTLTMTGFGVTKQFLAEKKKDAFLGLQEKIEKRLRTSVTNATVDATGPVYFGGFAFDPERDTEKEWQSFKDGLFYLPLFMLTNKDGKSYLTVNLSIYSDDTESKLEAVFNQWQKIIHQEVNEAEMALLTDFKEIGKDHFLETASEIIDMINHSEDVKKVVLARRMGLRFQRQVDSAIILENMLATQENSYFFLIEKGTGVFFGATPERLLAVNGDEIHSSCVAGSTERGATEEADEALGNALLKDAKNLREHSYVVQMMEETLKPFTTGLSLSSQPVLLKNRDIQHLYMNITAKKKPDVSMLEMVKALHPTPALGGLPQKMGLAIIRMKEEMDRGFYGAPIGWVDLKGSGEFAVAIRSGLIVDSQGLIYAGCGIVGDSVPKEELQETAVKFQPMLRVLGGIKK” as the sequence, how does the “soluble on expression in E. coli” value read?
A: not soluble

Q: For “MNTQYLQYVREQLMVATADLSGETKGQLLAWLENAQFDTKNYPRKKQRIWDEETESWITLNNPPIPGKQSLAKGSAIPLVKPVEYSTASWRRAVLSLDEHYKAWLLWNYSENTCWEHQVEITQWGWSAFAAQLDGKKMAGKTQERLRALIWLAAQDVKSELAGREVYQYKELAGLVGVSEKNWSETFTRHWLTMRAIFLRLDQASLLSVSESRSEQVAFNLYALN”, which “soluble on expression in E. coli” value is on record?
A: not soluble

Q: For “MNVFYTREGVGDVLLVSLKPAADEERTFVRQGDVVRIMSERTGETVGYNIFSASSYYPFSGNGPLEVNEELVGVINDILAKNGFDEPIEADLSPKFVVGYVKEKTKHPNADKLSVCQVDVGGEVLQIVCGAPNVAEGQKVVVAKIGAVMPNGLVIQESELRGVRSSGMICSARELGLPNAPQEKGILVLSDEYEVGQPFVF”, which “soluble on expression in E. coli” value is on record?
A: not soluble

Q: For “MNVMLSKNYMMEKYNMSTTVGLPQFSHIKIEHFKSHLDALLKNHLEEIDRLLKENHHYTWDNLIYPLDSLADELERFWSPFAHMHAVMDSETIRESYEACLPLLSAYDAAIGHNQDLYEAIKSIDQHSLNPAQKKIIADSIQDFEL”, which “soluble on expression in E. coli” value is on record?
A: not soluble

Q: Which “soluble on expression in E. coli” value does the source give for “MNVSVVIPALNEEATVADVVALSRRGSDEVIVIDSDSTDATAARAKAAGASVVNWRDVVSLPPIPGKGEALWRGVAAARGDVVVFLDADLTEISPTIVEDLARPFIDDSVMLAKAAYTRGDASGGGGRVTELTARPLLEAFFPELGFVRQPLGGEYAIRRSAALDLPFVGGYGVEVGLLIDVFRCFGAASIVEVEAGHRGHRHRPLRELAPMARVVASTILQRAGVASGLDGVGQRPAISSLESGVGKVLEHHHHHH” here?
A: soluble

Q: With “MNVTTPEVAFREYQTNCLASYISADPDITPSNLILQGYSGTGKTYTLKKYFNANPNLHAVWLEPVELVSWKPLLQAIARTVQYKLKTLYPNIPTTDYDPLQVEEPFLLVKTLHNIFVQYESLQEKTCLFLILDGFDSLQDLDAALFNKYIKLNELLPKDSKINIKFIYTMLETSFLQRYSTHCIPTVMFPRYNVDEVSTILVMSRCGELMEDSCLRKRIIEEQITDCTDDQFQNVAANFIHLIVQAFHSYTGNDIFALNDLIDFKWPKYVSRITKENIFEPLALYKSAIKLFLSTDDNLSENGQGESAITTNRDDLENSQTYDLSIISKYLLIASYICSYLEPRYDASIFSRKTRIIQGRAAYGRRKKKEVNPRYLQPSLFAIERLLAIFQAIFPIQGKAESGSLSALREESLMKANIEVFQNLSELHTLKLIATTMNKNIDYLSPKVRWKVNVPWEIIKEISESVHFNISDYFSDIHE” as the sequence, how does the “soluble on expression in E. coli” value read?
A: soluble
